# Data published in publication PMC4963855.
# Target: mouse recombinant TNF (mouse) (UniProt P06804)
# Chain of UniProt P06804 (P06804 80-235): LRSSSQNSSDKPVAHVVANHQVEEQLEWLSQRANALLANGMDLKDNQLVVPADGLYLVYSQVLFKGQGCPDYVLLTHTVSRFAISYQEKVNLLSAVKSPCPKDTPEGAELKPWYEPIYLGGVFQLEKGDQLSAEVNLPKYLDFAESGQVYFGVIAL
substance,measurement,value
"BmooMP-alpha-I, zinc metalloprotease of class P-I from Bothrops moojeni snake venom (enzyme)",TNF level detected by sandwich ELISA after preincubation of recombinant TNF (1000 pg/mL) with 12 ug/mL BmooMP-alpha-I for 45 min at 37 °C (degradation of TNF),53.4 % decrease
same,TNF level detected by sandwich ELISA after preincubation of recombinant TNF with BmooMP-alpha-I inactivated with 10 mM Na2EDTA (BmooMP-alpha-I(i)),80%
